Measurements: patent publication US20250019437A1

Tests used:
[1] = target: T1, human TREM2 (triggering receptor expressed on myeloid cells 2) (human) (UniProt Q9NZC2); assay: 2nd screen, 100 nM Ab
T1 sequence (looked up): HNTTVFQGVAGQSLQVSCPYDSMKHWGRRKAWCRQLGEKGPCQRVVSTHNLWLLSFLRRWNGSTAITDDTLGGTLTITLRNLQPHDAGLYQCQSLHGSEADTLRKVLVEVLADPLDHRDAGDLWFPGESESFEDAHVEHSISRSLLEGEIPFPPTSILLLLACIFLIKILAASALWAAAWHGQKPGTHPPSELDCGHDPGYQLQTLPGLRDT

[2] = target: T1, human TREM2 (triggering receptor expressed on myeloid cells 2) (human); assay: 1st screen, 110 nM Ab

| Binding Signal (fold over 6E7 parental antibody) [1] | Binding Signal (fold over 6E7 parental antibody) [2] | Binder |
| --- | --- | --- |
| 1.02 fold | 0.34 fold | 6E7 antibody affinity modulation variant V34 (antibody, V domains shown) VH: EVQLVQSGAEVKKPGESLKISCKGSGYSFTSYWIAWVRQMPGKGLEWMGIIYPGDSDTRYSPSFQGQVTISADKSISTAYLQWSSLKASDTAMYFCARQRTFYYDSSDYFDYWGQGTLVTVSS VL: DIQMTQSPSSVSASVGDRVTITCRASQGISSWLAWYQQKPGKAPKLLIYAASSLQDGVPSRFSGSGSGTDFTLTISSLQPEDFATYFCQQADSFPRTFGQGTKLEIK |
| 0.29 fold | 0.21 fold | 6E7 antibody affinity modulation variant V35 (antibody, V domains shown) VH: EVQLVQSGAEVKKPGESLKISCKGSGYSFTSYWIAWVRQMPGKGLEWMGIIYPGDSDTRYSPSFQGQVTISADKSISTAYLQWSSLKASDTAMYFCARQRTFYYDSSDYFDYWGQGTLVTVSS VL: DIQMTQSPSSVSASVGDRVTITCRASQGISSWLAWYQQKPGKAPKLLIYAASSLQNGVPSRFSGSGSGTDFTLTISSLQPEDFATYFCQQAYSFPRTFGQGTKLEIK |
| 0.41 fold | 0.45 fold | 6E7 antibody affinity modulation variant V42 (antibody, V domains shown) VH: EVQLVQSGAEVKKPGESLKISCKGSGYSFTSAWIAWVRQMPGKGLEWMGIIYPGDSDTRYSPSFQGQVTISADKSISTAYLQWSSLKASDTAMYFCARQRTFYYDSSDYFDYWGQGTLVTVSS VL: DIQMTQSPSSVSASVGDRVTITCRASQGISSWLAWYQQKPGKAPKLLIYAASSLQNGVPSRFSGSGSGTDFTLTISSLQPEDFATYFCQQADSFPRTFGQGTKLEIK |
| 0.33 fold | 0.2 fold | 6E7 antibody affinity modulation variant V43 (antibody, V domains shown) VH: EVQLVQSGAEVKKPGESLKISCKGSGYSFTSYWIAWVRQMPGKGLEWMGIIYPGDSGTRYSPSFQGQVTISADKSISTAYLQWSSLKASDTAMYFCARQRTFYYDSSDYFDYWGQGTLVTVSS VL: DIQMTQSPSSVSASVGDRVTITCRASQGISSWLAWYQQKPGKAPKLLIYAASSLQNGVPSRFSGSGSGTDFTLTISSLQPEDFATYFCQQADSFPRTFGQGTKLEIK |
| 0.52 fold | 0.65 fold | 6E7 antibody affinity modulation variant V44 (antibody, V domains shown) VH: EVQLVQSGAEVKKPGESLKISCKGSGYSFTSYWIAWVRQMPGKGLEWMGIIYPSDSDTRYSPSFQGQVTISADKSISTAYLQWSSLKASDTAMYFCARQRTFYYDSSDYFDYWGQGTLVTVSS VL: DIQMTQSPSSVSASVGDRVTITCRASQGISSWLAWYQQKPGKAPKLLIYAASSLQNGVPSRFSGSGSGTDFTLTISSLQPEDFATYFCQQADSFPRTFGQGTKLEIK |
| 0.53 fold | 0.43 fold | 6E7 antibody affinity modulation variant V45 (antibody, V domains shown) VH: EVQLVQSGAEVKKPGESLKISCKGSGYSFTSYWIAWVRQMPGKGLEWMGIIYPGDSDTRYSPSFQGQVTISADKSISTAYLQWSSLKASDTAMYFCARQRTFYYDSSDYFDYWGQGTLVTVSS VL: DIQMTQSPSSVSASVGDRVTITCRASQGISSFLAWYQQKPGKAPKLLIYAASSLQNGVPSRFSGSGSGTDFTLTISSLQPEDFATYFCQQADSFPRTFGQGTKLEIK |
| 0.96 fold | 0.83 fold | 6E7 antibody affinity modulation variant V46 (antibody, V domains shown) VH: EVQLVQSGAEVKKPGESLKISCKGSGYSFTSYWIAWVRQMPGKGLEWMGIIYPGDSDTRYSPSFQGQVTISADKSISTAYLQWSSLKASDTAMYFCARQRTFYYDSSDYFDYWGQGTLVTVSS VL: DIQMTQSPSSVSASVGDRVTITCRASQGISSWLAWYQQKPGKAPKLLIYAASTLQNGVPSRFSGSGSGTDFTLTISSLQPEDFATYFCQQADSFPRTFGQGTKLEIK |
| 0.47 fold | 0.42 fold | 6E7 antibody affinity modulation variant V47 (antibody, V domains shown) VH: EVQLVQSGAEVKKPGESLKISCKGSGYSFTSYWIAWVRQMPGKGLEWMGIIYPGDSDTRYSPSFQGQVTISADKSISTAYLQWSSLKASDTAMYFCARQRTFYYDSSDYFDYWGQGTLVTVSS VL: DIQMTQSPSSVSASVGDRVTITCRASQGISSWLAWYQQKPGKAPKLLIYAASSLQNGVPSRFSGSGSGTDFTLTISSLQPEDFATYFCQQADSFPMTFGQGTKLEIK |
| 0.54 fold | 0.55 fold | 6E7 antibody affinity modulation variant V54 (antibody, V domains shown) VH: EVQLVQSGAEVKKPGESLKISCKGSGYSFTSQWIAWVRQMPGKGLEWMGIIYPGDSDTRYSPSFQGQVTISADKSISTAYLQWSSLKASDTAMYFCARQRTFYYDSSDYFDYWGQGTLVTVSS VL: DIQMTQSPSSVSASVGDRVTITCRASQGISSWLAWYQQKPGKAPKLLIYAASSLQNGVPSRFSGSGSGTDFTLTISSLQPEDFATYFCQQADSFPRTFGQGTKLEIK |
| 0.66 fold | 0.24 fold | 6E7 antibody affinity modulation variant V55 (antibody, V domains shown) VH: EVQLVQSGAEVKKPGESLKISCKGSGYSFTSYWIAWVRQMPGKGLEWMGIIYPGDSDTIYSPSHQGQVTISADKSISTAYLQWSSLKASDTAMYFCARQRTFYYDSSDYFDYWGQGTLVTVSS VL: DIQMTQSPSSVSASVGDRVTITCRASQGISSWLAWYQQKPGKAPKLLIYAASSLQNGVPSRFSGSGSGTDFTLTISSLQPEDFATYFCQQADSFPRTFGQGTKLEIK |
| 0.59 fold | 0.23 fold | 6E7 antibody affinity modulation variant V56 (antibody, V domains shown) VH: EVQLVQSGAEVKKPGESLKISCKGSGYSFTSYWIAWVRQMPGKGLEWMGIIYPGDSDTRYQPSFQGQVTISADKSISTAYLQWSSLKASDTAMYFCARQRTFYYDSSDYFDYWGQGTLVTVSS VL: DIQMTQSPSSVSASVGDRVTITCRASQGISSWLAWYQQKPGKAPKLLIYAASSLQNGVPSRFSGSGSGTDFTLTISSLQPEDFATYFCQQADSFPRTFGQGTKLEIK |
| 0.85 fold | 0.84 fold | 6E7 antibody affinity modulation variant V57 (antibody, V domains shown) VH: EVQLVQSGAEVKKPGESLKISCKGSGYSFTSYWIAWVRQMPGKGLEWMGIIYPGDSDTRYSPSFQGQVTISADKSISTAYLQWSSLKASDTAMYFCARQRTFYYDSSDYFDYWGQGTLVTVSS VL: DIQMTQSPSSVSASVGDRVTITCAASQGISSWLAWYQQKPGKAPKLLIYAASSLQNGVPSRFSGSGSGTDFTLTISSLQPEDFATYFCQQADSFPRTFGQGTKLEIK |
| 0.68 fold | 0.28 fold | 6E7 antibody affinity modulation variant V58 (antibody, V domains shown) VH: EVQLVQSGAEVKKPGESLKISCKGSGYSFTSYWIAWVRQMPGKGLEWMGIIYPGDSDTRYSPSFQGQVTISADKSISTAYLQWSSLKASDTAMYFCARQRTFYYDSSDYFDYWGQGTLVTVSS VL: DIQMTQSPSSVSASVGDRVTITCRASQGISSWLAWYQQKPGKAPKLLIYKASSLQNGVPSRFSGSGSGTDFTLTISSLQPEDFATYFCQQADSFPRTFGQGTKLEIK |
| 0.6 fold | 0.19 fold | 6E7 antibody affinity modulation variant V59 (antibody, V domains shown) VH: EVQLVQSGAEVKKPGESLKISCKGSGYSFTSYWIAWVRQMPGKGLEWMGIIYPGDSDTRYSPSFQGQVTISADKSISTAYLQWSSLKASDTAMYFCARQRTFYYDSSDYFDYWGQGTLVTVSS VL: DIQMTQSPSSVSASVGDRVTITCRASQGISSWLAWYQQKPGKAPKLLIYAASSLQNGVPSRFSGSGSGTDFTLTISSLQPEDFATYFCMQADSFPRTFGQGTKLEIK |
| 0.74 fold | 0.25 fold | 6E7 antibody affinity modulation variant V66 (antibody, V domains shown) VH: EVQLVQSGAEVKKPGESLKISCKGSGTSFTSYWIAWVRQMPGKGLEWMGIIYPGDSDTRYSPSFQGQVTISADKSISTAYLQWSSLKASDTAMYFCARQRTFYYDSSDYFDYWGQGTLVTVSS VL: DIQMTQSPSSVSASVGDRVTITCRASQGISSWLAWYQQKPGKAPKLLIYAASSLQNGVPSRFSGSGSGTDFTLTISSLQPEDFATYFCQQADSFPRTFGQGTKLEIK |
| 0.84 fold | 0.8 fold | 6E7 antibody affinity modulation variant V67 (antibody, V domains shown) VH: EVQLVQSGAEVKKPGESLKISCKGSGYSFTSYWIAWVRQMPGKGLEWMGMIYPGDSDTRYSPSFQGQVTISADKSISTAYLQWSSLKASDTAMYFCARQRTFYYDSSDYFDYWGQGTLVTVSS VL: DIQMTQSPSSVSASVGDRVTITCRASQGISSWLAWYQQKPGKAPKLLIYAASSLQNGVPSRFSGSGSGTDFTLTISSLQPEDFATYFCQQADSFPRTFGQGTKLEIK |
| 0.43 fold | 0.44 fold | 6E7 antibody affinity modulation variant V68 (antibody, V domains shown) VH: EVQLVQSGAEVKKPGESLKISCKGSGYSFTSYWIAWVRQMPGKGLEWMGIIYPGDSDTRYSPSFQGQVTISADKSISTAYLQWSSLKASDTAMYFCARQRTFRYDSSDYFDYWGQGTLVTVSS VL: DIQMTQSPSSVSASVGDRVTITCRASQGISSWLAWYQQKPGKAPKLLIYAASSLQNGVPSRFSGSGSGTDFTLTISSLQPEDFATYFCQQADSFPRTFGQGTKLEIK |
| 0.4 fold | 0.41 fold | 6E7 antibody affinity modulation variant V69 (antibody, V domains shown) VH: EVQLVQSGAEVKKPGESLKISCKGSGYSFTSYWIAWVRQMPGKGLEWMGIIYPGDSDTRYSPSFQGQVTISADKSISTAYLQWSSLKASDTAMYFCARQRTFYYDSSDYFDYWGQGTLVTVSS VL: DIQMTQSPSSVSASVGDRVTITCRASQGISSYLAWYQQKPGKAPKLLIYAASSLQNGVPSRFSGSGSGTDFTLTISSLQPEDFATYFCQQADSFPRTFGQGTKLEIK |
